Source: the Immune Epitope Database (IEDB)
pKd: −log10 of the molar value.

Key:
HLA-B*57:01 = assay: IEDB peptide-MHC binding, purified MHC/direct/fluorescence; filed as Kd, often an IC50 or EC50 that approximates it; ≥ and ≤ were set here for values at or beyond the usual limits of such assays
HLA-A*26:01 = assay: as above
HLA-A*02:01 [1] = assay: as above
HLA-B*39:01 = assay: as above
HLA-A*02:03 = assay: as above
HLA-A*02:19 = assay: as above
HLA-A*02:12 = assay: as above
HLA-B*46:01 = assay: as above
HLA-B*15:01 = assay: as above
HLA-B*27:03 = assay: as above
HLA-B*18:01 = assay: as above
HLA-A*03:01 = assay: as above
HLA-A*02:16 = assay: as above
HLA-A*69:01 = assay: as above
HLA-B*51:01 = assay: as above
HLA-A*02:11 = assay: as above
HLA-A*29:02 = assay: as above; settings: source organism: Entamoeba histolytica HM-1:IMSS
HLA-A*24:03 = assay: as above
HLA-B*15:17 = assay: as above
HLA-A*26:02 = assay: IEDB peptide-MHC binding, purified MHC/competitive/fluorescence; filed as Kd, often an IC50 or EC50 that approximates it; ≥ and ≤ were set here for values at or beyond the usual limits of such assays; settings: source organism: Hantaan virus 76-118
HLA-A*02:01 [2] = assay: as above; settings: source organism: Yersinia pestis Nepal516
HLA-B*35:01 = assay: as above; settings: source organism: Yersinia pestis Nepal516
HLA-C*08:02 = assay: IEDB peptide-MHC binding, purified MHC/direct/fluorescence; filed as Kd, often an IC50 or EC50 that approximates it; ≥ and ≤ were set here for values at or beyond the usual limits of such assays
HLA-A*80:01 = assay: as above; settings: source organism: Yellow fever virus
HLA-A*24:02 = assay: IEDB peptide-MHC binding, purified MHC/competitive/fluorescence; filed as Kd, often an IC50 or EC50 that approximates it; ≥ and ≤ were set here for values at or beyond the usual limits of such assays
HLA-A*01:01 = assay: IEDB peptide-MHC binding, purified MHC/direct/fluorescence; filed as Kd, often an IC50 or EC50 that approximates it; ≥ and ≤ were set here for values at or beyond the usual limits of such assays; settings: source organism: Giardia lamblia ATCC 50803
HLA-B*40:01 = assay: as above; settings: source organism: Giardia lamblia ATCC 50803
HLA-B*08:01 = assay: as above; settings: source organism: Giardia lamblia ATCC 50803
HLA-B*27:05 = assay: as above; settings: source organism: Giardia lamblia ATCC 50803
HLA-B*48:01 = assay: as above; settings: source organism: Giardia lamblia ATCC 50803
HLA-B*08:02 = assay: as above; settings: source organism: Giardia lamblia ATCC 50803
HLA-A*31:01 = assay: as above; settings: source organism: Giardia lamblia ATCC 50803
HLA-B*38:01 = assay: as above; settings: source organism: Giardia lamblia ATCC 50803
HLA-B*58:01 = assay: as above; settings: source organism: Giardia lamblia ATCC 50803
HLA-A*11:01 = assay: as above; settings: source organism: Giardia lamblia ATCC 50803
HLA-B*07:02 = assay: as above; settings: source organism: Giardia lamblia ATCC 50803
HLA-C*07:02 = assay: as above; settings: source organism: Listeria monocytogenes EGD-e
HLA-C*15:02 = assay: as above; settings: source organism: Listeria monocytogenes EGD-e
HLA-C*14:02 = assay: as above; settings: source organism: Listeria monocytogenes EGD-e
HLA-A*68:02 = assay: as above; settings: source organism: Crocodilepox virus
[3] = source organism: Brucella suis 1330
[4] = source organism: Entamoeba histolytica HM-1:IMSS
[5] = source organism: Yellow fever virus
[6] = source organism: Giardia lamblia ATCC 50803
[7] = source organism: Listeria monocytogenes EGD-e
[8] = source organism: Crocodilepox virus

## DPPEPLVRI
HLA-B*57:01; [3]
  pKd: ≤ 4.70
HLA-A*26:01; [3]
  pKd: ≤ 4.70
HLA-A*02:01 [1]; [3]
  pKd: ≤ 4.70
HLA-B*39:01; [3]
  pKd: ≤ 4.70
HLA-A*02:03; [3]
  pKd: ≤ 4.70
HLA-A*02:19; [3]
  pKd: ≤ 4.70
HLA-A*02:12; [3]
  pKd: ≤ 4.70
HLA-B*46:01; [3]
  pKd: ≤ 4.70
HLA-B*15:01; [3]
  pKd: ≤ 4.70
HLA-B*27:03; [3]
  pKd: ≤ 4.70
HLA-B*18:01; [3]
  pKd: ≤ 4.70
HLA-A*03:01; [3]
  pKd: ≤ 4.70
HLA-A*02:16; [3]
  pKd: ≤ 4.70
HLA-A*69:01; [3]
  pKd: ≤ 4.70
HLA-B*51:01; [3]
  pKd: 5.73

## DSFAKQPQW
HLA-A*02:11; [4]
  pKd: ≤ 4.70
HLA-A*26:01; [4]
  pKd: ≤ 4.70
HLA-A*02:01 [1]; [4]
  pKd: ≤ 4.70
HLA-A*29:02
  pKd: ≤ 4.70
HLA-B*39:01; [4]
  pKd: ≤ 4.70
HLA-A*02:03; [4]
  pKd: ≤ 4.70
HLA-A*02:19; [4]
  pKd: ≤ 4.70
HLA-A*02:12; [4]
  pKd: ≤ 4.70
HLA-B*46:01; [4]
  pKd: ≤ 4.70
HLA-B*15:01; [4]
  pKd: ≤ 4.70
HLA-A*24:03; [4]
  pKd: ≤ 4.70
HLA-B*27:03; [4]
  pKd: ≤ 4.70
HLA-A*03:01; [4]
  pKd: ≤ 4.70
HLA-A*02:16; [4]
  pKd: ≤ 4.70
HLA-B*15:17; [4]
  pKd: 6.69
HLA-A*69:01; [4]
  pKd: ≤ 4.70

## ETYKELKAH
HLA-A*26:02
  pKd: 7.93
HLA-A*26:01; source organism: Orthohantavirus hantanense
  pKd: 6.60

## FVADYLARF
HLA-A*02:01 [2]
  pKd: 7.09
HLA-B*35:01
  pKd: 8.48
HLA-C*08:02; source organism: Yersinia pestis Nepal516
  pKd: 5.56

## GTGDSRLTY
HLA-A*02:01 [1]; [5]
  pKd: ≤ 4.70
HLA-A*80:01
  pKd: 6.70
HLA-A*69:01; [5]
  pKd: ≤ 4.70

## GVEGIGLQY
HLA-A*80:01
  pKd: 6.47

## LYKKLKREITF
HLA-A*24:02; source organism: Influenza A virus (A/goose/Hong Kong/437-6/1999(H5N1))
  pKd: 8.29

## QPWTPVSSF
HLA-A*01:01
  pKd: ≤ 4.70
HLA-B*40:01
  pKd: ≤ 4.70
HLA-B*57:01; [6]
  pKd: ≤ 4.70
HLA-B*08:01
  pKd: ≤ 4.70
HLA-B*27:05
  pKd: ≤ 4.70
HLA-A*26:01; [6]
  pKd: ≤ 4.70
HLA-A*02:01 [1]; [6]
  pKd: ≤ 4.70
HLA-B*48:01
  pKd: ≤ 4.70
HLA-B*08:02
  pKd: ≤ 4.70
HLA-A*31:01
  pKd: ≤ 4.70
HLA-B*38:01
  pKd: ≤ 4.70
HLA-B*46:01; [6]
  pKd: ≤ 4.70
HLA-B*15:01; [6]
  pKd: ≤ 4.70
HLA-B*58:01
  pKd: 4.72
HLA-B*18:01; [6]
  pKd: 5.61
HLA-A*11:01
  pKd: ≤ 4.70
HLA-A*03:01; [6]
  pKd: ≤ 4.70
HLA-B*07:02
  pKd: 6.87
HLA-B*15:17; [6]
  pKd: 5.58
HLA-A*69:01; [6]
  pKd: ≤ 4.70
HLA-B*51:01; [6]
  pKd: ≤ 4.70

## RYGPALSI
HLA-A*24:02; source organism: Influenza A virus H3N2
  pKd: ≥ 10.00

## RYPRSVLTF
HLA-A*24:02; [7]
  pKd: ≥ 10.00
HLA-C*07:02
  pKd: 7.36
HLA-C*15:02
  pKd: ≤ 4.70
HLA-A*24:03; [7]
  pKd: ≥ 9.00
HLA-C*14:02
  pKd: ≥ 9.00

## STAPTGSWF
HLA-C*08:02; source organism: human gammaherpesvirus 4
  pKd: ≤ 4.70

## SWFNSFLTHAL
HLA-A*24:02; source organism: Influenza A virus (A/X-31(H3N2))
  pKd: 6.82

## VVARLGVPY
HLA-B*57:01; [8]
  pKd: ≤ 4.70
HLA-A*68:02
  pKd: ≤ 4.70
HLA-A*02:11; [8]
  pKd: ≤ 4.70
HLA-A*26:01; [8]
  pKd: ≤ 4.70
HLA-A*02:01 [1]; [8]
  pKd: ≤ 4.70
HLA-B*39:01; [8]
  pKd: ≤ 4.70
HLA-A*02:03; [8]
  pKd: ≤ 4.70
HLA-A*02:19; [8]
  pKd: ≤ 4.70
HLA-A*02:12; [8]
  pKd: ≤ 4.70
HLA-A*24:03; [8]
  pKd: ≤ 4.70
HLA-B*27:03; [8]
  pKd: ≤ 4.70
HLA-A*03:01; [8]
  pKd: ≤ 4.70
HLA-A*02:16; [8]
  pKd: ≤ 4.70
HLA-B*51:01; [8]
  pKd: ≤ 4.70
